Target: GST-tagged Rheb-G63V expressed in HEK293T (UniProt Q15382)
Test: GST pull-down and immunoblotting, band intensity quantified
Conditions: HEK293T cells, transient co-expression; mean ± SEM (n = 3); parent: est. 1.0; read off a plot

Chain of SFB-tagged ATP6AP1 (wild type, full length) (Q15904 42-470 I469del/V470del): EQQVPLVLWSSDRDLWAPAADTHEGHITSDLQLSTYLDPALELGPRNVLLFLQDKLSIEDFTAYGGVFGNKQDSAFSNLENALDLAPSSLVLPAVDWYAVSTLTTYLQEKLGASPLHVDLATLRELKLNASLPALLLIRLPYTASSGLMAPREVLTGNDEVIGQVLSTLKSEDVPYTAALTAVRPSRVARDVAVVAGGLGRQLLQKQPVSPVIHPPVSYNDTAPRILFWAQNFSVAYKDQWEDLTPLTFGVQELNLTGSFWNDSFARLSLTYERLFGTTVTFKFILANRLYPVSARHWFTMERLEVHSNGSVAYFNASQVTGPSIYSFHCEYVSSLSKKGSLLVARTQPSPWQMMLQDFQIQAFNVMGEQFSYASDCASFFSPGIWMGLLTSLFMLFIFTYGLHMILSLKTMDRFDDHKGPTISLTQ
Chain of GST-tagged Rheb-G63V expressed in HEK293T (Q15382 whole entry G63V): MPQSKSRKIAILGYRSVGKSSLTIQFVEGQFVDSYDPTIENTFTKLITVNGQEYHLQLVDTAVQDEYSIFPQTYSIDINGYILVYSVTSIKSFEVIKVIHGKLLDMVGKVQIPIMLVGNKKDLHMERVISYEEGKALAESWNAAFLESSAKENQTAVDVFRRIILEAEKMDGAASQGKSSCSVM

SFB-tagged ATP6AP1 (wild type, full length) (from UniProt Q15904) I469del; V470del
ratio to parent (relative to ATP6AP1): 0.77

From PMC11061317
